Data taken from patent US20250333501A1.

Tests used:
[1] = molecular target: CLDN6 endogenously expressed by human cancer cell lines (ARK2, OVCA429) (human) (UniProt P56747); experiment: FACS, 0.3 µg Ab, ARK2 cells
[2] = molecular target: CLDN6 endogenously expressed by human cancer cell lines (ARK2, OVCA429) (human) (UniProt P56747); experiment: FACS, 1.5 µg Ab, ARK2 cells
[3] = molecular target: CLDN6 endogenously expressed by human cancer cell lines (ARK2, OVCA429) (human) (UniProt P56747); experiment: FACS, 1.5 µg Ab, OVCA429 cells
[4] = molecular target: human CLDN6 fused to GFP, expressed on engineered HEK293T cells (HEK293T-CLDN6-mGFP) (human) (UniProt P56747); experiment: FACS, 0.3 µg Ab, 293T clone with human CLDN6
Chain of human CLDN6 fused to GFP, expressed on engineered HEK293T cells (HEK293T-CLDN6-mGFP) (human) (P56747 whole entry, change not shown, the tested form may be a part): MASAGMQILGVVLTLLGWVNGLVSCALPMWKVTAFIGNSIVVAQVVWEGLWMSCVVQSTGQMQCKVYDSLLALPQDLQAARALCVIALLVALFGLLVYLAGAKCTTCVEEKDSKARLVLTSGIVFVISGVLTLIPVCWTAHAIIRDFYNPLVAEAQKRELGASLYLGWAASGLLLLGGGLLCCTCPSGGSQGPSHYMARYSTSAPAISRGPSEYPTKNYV

[5] = molecular target: human CLDN6 fused to GFP, expressed on engineered HEK293T cells (HEK293T-CLDN6-mGFP) (human) (UniProt P56747); experiment: FACS, 1.5 µg Ab, 293T clone with human CLDN6
[6] = molecular target: mouse CLDN6 fused to GFP, expressed on engineered HEK293T cells (mouse) (UniProt Q9Z262); experiment: FACS, 293T clone with mouse CLDN6, dose not given
Chain of mouse CLDN6 fused to GFP, expressed on engineered HEK293T cells (mouse) (Q9Z262 whole entry, change not shown, the tested form may be a part): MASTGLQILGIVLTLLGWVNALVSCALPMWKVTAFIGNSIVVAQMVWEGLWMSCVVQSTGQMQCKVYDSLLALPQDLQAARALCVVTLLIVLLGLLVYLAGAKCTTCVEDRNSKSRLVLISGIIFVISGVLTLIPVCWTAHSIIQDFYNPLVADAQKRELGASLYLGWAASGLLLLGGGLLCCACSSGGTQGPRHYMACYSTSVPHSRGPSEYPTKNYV

Chain of CLDN6 endogenously expressed by human cancer cell lines (ARK2, OVCA429) (human) (P56747 whole entry, the tested form may be a part): as the sequence (P56747 whole entry, change not shown, the tested form may be a part) above

FACS fluorescence [1]: 1350 | FACS fluorescence [2]: 1350 | FACS fluorescence [3]: 886 | FACS fluorescence [4]: 768 | FACS fluorescence [5]: 768 | FACS fluorescence [6]: 1060
Substance: 2nd Ab only (antibody)
